How the values were obtained:
streptavidin [1] = biological target: T1, streptavidin (UniProt P22629 37-163, limits assumed); assay: fluorescent binding curve, labeled SA in 50% blood serum, 4 h; quadratic fit
T1 construct: It was used without a stated label in the sandwich assays; also called SA

streptavidin [2] = biological target: T1, streptavidin; assay: sandwich assay: SA in 50% blood serum, biotin-HRP/TMB detection
Method: (§1) Each well was submerged in 1 mL of 1% BSA in Milli-Q water, and the 12-well plate was incubated at 37° C. for 30 minutes. The wells were rinsed twice by adding 2 mL of Milli-Q water and gently shaking the well plate at 70 rpm for 5 minutes. 1 mL of streptavidin diluted in PBS, urine, or blood serum (prepared as described in the Fluorescent Assays section) containing 0.1% BSA was then added to each well, and the well plate was shaken at 70 rpm for 4 hours at room temperature. Wells were rinsed twice with 2 mL of Milli-Q water then twice with 2 mL of 0.1% BSA in Milli-Q water by shaking at 70 rpm for 5 minutes. After rinsing, wells were submerged in 1 mL of 200 ng/mL biotin-HRP in Milli-Q water containing 0.1% BSA, and the well plate was shaken at 70 rpm for 1 hour at room temperature. Wells were then rinsed with water and 0.1% BSA as described previously. 1 mL of solution from a Pierce TMB substrate kit (Thermo Fisher Scientific) was added to each well, and the well plate was shaken vigorously at 125 rpm for 15 minutes at room temperature. 1 mL of 2M H2SO4 was added to each well, and the absorbance at 450 nm was read using a Tecan Infinite M200 PRO plate reader.
(§2) The general procedure for this proof-of-concept experiment is diagrammed in FIG. 28. Films were first exposed to SA solutions and rinsed to remove unbound analyte. Taking advantage of the strong interaction between SA and biotin, thin films were then submerged in a solution of biotinylated horseradish peroxidase (biotin-HRP). Bound SA was detected colorimetrically through the HRP-mediated oxidation of 3,3′,5,5′-tetramethylbenzidine (TMB). Attempts to perform this assay using mSA2 as the analyte were unsuccessful, even when run on an rcSso7d.SA monolayer.

streptavidin [3] = biological target: T1, streptavidin; assay: fluorescent binding curve, labeled SA in 50% urine, 4 h; quadratic fit
streptavidin [4] = biological target: T1, streptavidin; assay: sandwich assay: SA in 50% urine, biotin-HRP/TMB detection
Method: as §1, §2

[5] = biological target: monomeric streptavidin variant mSA2; assay: fluorescent binding curve, labeled mSA2 in 50% blood serum, 4 h; quadratic fit
streptavidin [6] = biological target: T1, streptavidin; assay: fluorescent binding assay, labeled SA in 50% urine on thin film, 4 h exposure
[7] = biological target: monomeric streptavidin variant mSA2; assay: fluorescent binding curve, labeled mSA2 in 50% urine, 4 h; quadratic fit
streptavidin [8] = biological target: T1, streptavidin; assay: fluorescent binding curve, labeled SA in PBS, 4 h exposure; quadratic fit
streptavidin [9] = biological target: T1, streptavidin; assay: apparent Kd (Kd,app); fluorescent binding curve, labeled SA in 50% urine, 4 h; quadratic fit
BSA = biological target: T2, BSA (bovine, UniProt P02769); assay: fluorescence of Alexa Fluor 488-labeled BSA retained in a 144 nm 3xSP77.6k thin film after rinsing with water for 0-30 s
T2 construct: full protein, fluorescently labeled; non-specific retention control; also called BSA labeled with Alexa Fluor 488

[10] = biological target: monomeric streptavidin variant mSA2; assay: apparent Kd (Kd,app); fluorescent binding curve, labeled mSA2 in 50% blood serum, 4 h; quadratic fit
streptavidin [11] = biological target: T1, streptavidin; assay: sandwich assay, SA in PBS, detection with biotin-HRP and TMB, absorbance at 450 nm
Method: as §1
The general procedure for this proof-of-concept experiment is diagrammed in FIG. 28. […] Bound SA was detected colorimetrically through the HRP-mediated oxidation of 3,3′,5,5′-tetramethylbenzidine (TMB). […]

streptavidin [12] = biological target: T1, streptavidin; assay: apparent Kd (Kd,app); fluorescent binding curve, labeled SA in PBS, 8 h exposure; quadratic fit
[13] = biological target: monomeric streptavidin variant mSA2; assay: fluorescent binding curves, labeled mSA2 in 50% urine or 50% blood serum, 4 h
streptavidin [14] = biological target: T1, streptavidin; assay: fluorescent binding assay, labeled SA in 50% blood serum on thin film, 4 h exposure
[15] = biological target: monomeric streptavidin variant mSA2; assay: apparent Kd (Kd,app); fluorescent binding curve, labeled mSA2 in 50% urine, 4 h; quadratic fit
streptavidin [16] = biological target: T1, streptavidin; assay: fluorescent binding curve, labeled SA in 50% blood serum, 4 h
Method: (§3) The binding function of rcSso7d.SA oligomer-PNIPAM thin films was measured using fluorescently-labeled monomeric streptavidin (mSA2) and fluorescently-labeled streptavidin (SA). Details for the expression, purification, and fluorescent labeling of mSA2 are provided below. Samples were prepared by serial dilution of SA or mSA2 in PBS (pH 7.4), human urine (diluted to 50% v/v in PBS, pH 7.4), or blood serum (obtained as the supernatant by centrifuging whole blood at 1500×g for 10 minutes, then diluted to 50% v/v in PBS, pH 7.4). 0.5 μL drops of solutions containing serially diluted fluorescent mSA2 and fluorescent SA samples in PBS (pH 7.4) were gently applied to the surface of each bioconjugate thin film. […] Fluorescence microscopy images were acquired at 4× magnification using a Cy5 filter set and exposure time of 5000 ms on an Olympus IX-81 inverted fluorescence microscope with an AxioCam HRC CCD camera. Fluorescent intensity was calculated using ImageJ software⁶⁷ by determining the average fluorescent signal in a rectangular area of the fluorescent image free of defects and occupying no less than half of the full sample application area.
(§4) To evaluate how the apparent size-based diffusion properties translated to biosensing capabilities, binding curves were measured using SA and mSA2 solutions in buffer. […]

streptavidin [17] = biological target: T1, streptavidin; assay: apparent Kd (Kd,app); fluorescent binding curve, labeled SA in 50% blood serum, 4 h; quadratic fit
streptavidin [18] = biological target: T1, streptavidin; assay: sandwich assay, SA in 50% blood serum, detection with biotin-HRP and TMB
Method: as §1, §2

[19] = biological target: monomeric streptavidin variant mSA2; assay: fluorescent binding assay, labeled mSA2 in 50% blood serum on thin film, 4 h exposure
Method: as §3, with “film. Films were incubated in a sealed chamber saturated with water vapor at room temperature to prevent to prevent drying of the applied fluorescent samples.” for “film.”
(§5) To evaluate how the apparent size-based diffusion properties translated to biosensing capabilities, binding curves were measured using SA and mSA2 solutions in buffer. Binding curves were fit with a quadratic model that is a function of three parameters: the average MFI per binding event a, the total concentration of binding sites [P]T, and the apparent dissociation constant K_{d,app} describing the binding equilibrium between analyte and binding sites within the thin film.

streptavidin [20] = biological target: T1, streptavidin; assay: fluorescent binding curve fits, labeled SA in PBS, 30 min exposure
Method: as §3, §4

streptavidin [21] = biological target: T1, streptavidin; assay: apparent Kd (Kd,app); fluorescent binding curve, labeled SA in PBS, 4 h exposure; quadratic fit
streptavidin [22] = biological target: T1, streptavidin; assay: apparent Kd (Kd,app); fluorescent binding curve, labeled SA in PBS, 0.5 h exposure; quadratic fit
[23] = biological target: monomeric streptavidin variant mSA2; assay: fluorescent binding assay, labeled mSA2 in 50% urine on thin film, 4 h exposure
Method: as §3, with “film. Films were incubated in a sealed chamber saturated with water vapor at room temperature to prevent to prevent drying of the applied fluorescent samples.” for “film.”
as §5

T1 sequence (P22629 37-163 limits assumed): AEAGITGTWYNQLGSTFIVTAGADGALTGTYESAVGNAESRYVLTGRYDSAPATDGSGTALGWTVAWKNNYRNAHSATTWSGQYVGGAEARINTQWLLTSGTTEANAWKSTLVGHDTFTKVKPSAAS
T2 sequence (P02769 25-607 limits assumed): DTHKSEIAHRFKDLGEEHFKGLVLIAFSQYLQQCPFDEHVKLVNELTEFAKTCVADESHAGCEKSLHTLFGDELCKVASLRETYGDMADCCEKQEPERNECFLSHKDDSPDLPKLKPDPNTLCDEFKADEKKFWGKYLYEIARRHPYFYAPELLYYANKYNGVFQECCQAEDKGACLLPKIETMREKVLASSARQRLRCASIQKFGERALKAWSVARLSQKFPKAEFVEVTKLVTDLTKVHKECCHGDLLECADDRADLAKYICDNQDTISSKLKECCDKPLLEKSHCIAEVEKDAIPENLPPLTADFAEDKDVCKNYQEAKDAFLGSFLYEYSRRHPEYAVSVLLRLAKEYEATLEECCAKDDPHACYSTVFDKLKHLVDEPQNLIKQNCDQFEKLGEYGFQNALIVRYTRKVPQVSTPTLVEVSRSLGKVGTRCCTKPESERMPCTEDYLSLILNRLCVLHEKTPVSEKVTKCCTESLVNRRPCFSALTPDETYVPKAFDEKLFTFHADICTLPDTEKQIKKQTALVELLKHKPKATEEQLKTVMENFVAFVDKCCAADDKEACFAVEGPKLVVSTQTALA

B1: 3xSP77.6k thin film (3x rcSso7d.SA-PNIPAM conjugate, PNIPAM Mn 77.6 kDa) (designed binder)
chain: MGSSHHHHHHSSGLVPRGSHMCATVKFTYQGEEKQVDISKIKIVARDGQYIDFKYDEGGGAYGYGWVSEKDAPKELLQMLEKQGGGGSGGGGSMATVKFTYQGEEKQVDISKIKIVARDGQYIDFKYDEGGGAYGYGWVSEKDAPKELLQMLEKQGGGGSGGGGSMATVKFTYQGEEKQVDISKIKIVARDGQYIDFKYDEGGGAYGYGWVSEKDAPKELLQMLEKQGG
modifications: maleimide end-functionalized PNIPAM (Mn 77.6 kDa) on the N-terminal Cys; film lightly crosslinked with glutaraldehyde
Streptavidin [1]
  [P]T (total concentration of binding sites): 0.6 nM
Streptavidin [2]
  LOD: 85 nM
Streptavidin [3]
  [P]T (total concentration of binding sites): 0.3 nM
Streptavidin [4]
  LOD: 33 nM
[5]
  [P]T (total concentration of binding sites): 4.5 nM
Streptavidin [6]
  Limit of Detection: 800 nM
[7]
  [P]T (total concentration of binding sites): 15 nM
Streptavidin [8]
  [P]T (total concentration of binding sites): 0.41 nM
Streptavidin [9]
  Kd: 50 µM
BSA
  binding result: no binding (tested: 10 µM)
[10]
  Kd: 35 µM
Streptavidin [11]
  LOD relative to rcSso7d.SA monolayer: ~2 fold
Streptavidin [12]
  Kd: 15 µM
[13]
  LOD relative to rcSso7d.SA monolayer: 2 orders of magnitude lower
Streptavidin [14]
  Limit of Detection: 420 nM
[15]
  Kd: 31 µM
Streptavidin [16]
  reduction in LOD relative to rcSso7d.SA monolayer: ~2 fold
Streptavidin [17]
  Kd: 40 µM
Streptavidin [18]
  LOD relative to rcSso7d.SA monolayer: 2 fold
[19]
  Limit of Detection: 56 nM
Streptavidin [20]
  binding sites accessed relative to the 3×SP9.6k film: ~4 fold
Streptavidin [21]
  Kd: 17 µM
Streptavidin [22]
  Kd: 80 µM
[23]
  Limit of Detection: 14 nM
